In US6942981 one finds binding result and Kd data, which are given here for ten molecules.

The target of test [1] is T1, GST-LIMK2 PDZ domain fusion protein (human, UniProt P53671 147-237).
T1 construct: also called human LIM domain kinase 2; not shown: glutathione S-transferase (GST) encoded by pGEX-3X
T1 sequence: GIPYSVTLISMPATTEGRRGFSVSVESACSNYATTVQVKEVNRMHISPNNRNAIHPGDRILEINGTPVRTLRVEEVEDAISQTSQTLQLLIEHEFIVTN
Put plainly: A/G assays.

Test [2] concerns the target T2, GST-MPP2 PDZ domain fusion protein.
T2 construct: also called maguk p55 subfamily member 2 (DLG2); MMP2; not shown: glutathione S-transferase (GST) encoded by pGEX-3X
T2 chain: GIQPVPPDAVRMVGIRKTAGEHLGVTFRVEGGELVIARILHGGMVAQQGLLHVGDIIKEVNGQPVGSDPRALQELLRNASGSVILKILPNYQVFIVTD
As to the kind of experiment: A/G assays.

Test [3] has as its target T3, GST-DVL1 PDZ domain fusion protein (human).
T3 construct: also called human dishevelled segment polarity protein homolog; not shown: glutathione S-transferase (GST) encoded by pGEX-3X
T3 chain: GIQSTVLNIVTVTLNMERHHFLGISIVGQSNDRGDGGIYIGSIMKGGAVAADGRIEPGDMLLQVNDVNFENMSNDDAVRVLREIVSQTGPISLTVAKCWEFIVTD
As to the kind of experiment: A/G assays.

The target of test [4] is T4, GST-MINT3 PDZ domain fusion protein (human).
T4 construct: also called human MINT3; not shown: glutathione S-transferase (GST) encoded by pGEX-3X
T4 chain: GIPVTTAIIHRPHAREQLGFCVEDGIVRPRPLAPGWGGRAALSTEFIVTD
As to the kind of experiment: A/G assays.

Test [5] has as its target T5, GST-TAX2 PDZ domain fusion protein (human, UniProt O14908 129-216).
T5 construct: not shown: glutathione S-transferase (GST) encoded by pGEX-3X
T5 chain: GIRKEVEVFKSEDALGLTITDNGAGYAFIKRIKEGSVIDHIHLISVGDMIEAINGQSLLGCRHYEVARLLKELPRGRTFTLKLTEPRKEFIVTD
As to the kind of experiment: A/G assays.

The target of test [6] is T6, GST-SYN1a (alpha1-syntrophin) PDZ domain fusion protein (Homo sapiens (Human), UniProt Q13424 84-179).
T6 construct: also called SYN 1 α; not shown: glutathione S-transferase (GST) encoded by pGEX-3X
T6 sequence: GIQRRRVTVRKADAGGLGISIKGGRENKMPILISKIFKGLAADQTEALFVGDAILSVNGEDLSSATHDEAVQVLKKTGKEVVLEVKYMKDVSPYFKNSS
As to the kind of experiment: A/G assays.

Test [7] deals with T7, GST-NeDLG PDZ domains 1-2 fusion protein (Mus musculus (Mouse), UniProt P70175 147-332).
T7 construct: also called NeDLG1; not shown: glutathione S-transferase (GST) encoded by pGEX-3X
T7 chain: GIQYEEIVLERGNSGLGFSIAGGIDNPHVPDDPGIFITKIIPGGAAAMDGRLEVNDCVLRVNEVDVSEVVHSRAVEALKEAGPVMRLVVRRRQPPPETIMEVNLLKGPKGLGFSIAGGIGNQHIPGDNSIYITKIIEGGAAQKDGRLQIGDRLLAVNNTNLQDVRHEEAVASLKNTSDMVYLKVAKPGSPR
Put plainly: G assay titration of biotinylated peptide on immobilized GST-PDZ, saturation fit (apparent affinity). From the text:
FIGS. 2A and 2B show the Apparent Affinity Determination for PDZ-Ligand Interactions. […] The binding to GST alone (<0.2 OD units) was subtracted from the binding to the fusion proteins to obtain the signal at each peptide concentration.

Test [8] has as its target T2, GST-MPP2 PDZ domain fusion protein. As to the kind of experiment: G assay.
For test [9], the target named is T8, GST-NOS1 PDZ domain fusion protein (human, UniProt P29475 11-101).
T8 construct: also called human neuronal nitric oxide synthase; not shown: glutathione S-transferase (GST) encoded by pGEX-3X
Put plainly: A/G assays.

Test [10] has as its target T9, GST-KIAA0316 PDZ domain fusion protein (Homo sapiens (Human), UniProt Q14CM0 72-159).
T9 construct: also called K316; not shown: glutathione S-transferase (GST) encoded by pGEX-3X
As to the kind of experiment: A/G assays.

Test [11] addresses T7, GST-NeDLG PDZ domains 1-2 fusion protein. As to the kind of experiment: A/G assays.
The target of test [12] is T10, GST-TAX33 PDZ domain fusion protein (Homo sapiens (Human), UniProt O14910 103-194).
T10 construct: not shown: glutathione S-transferase (GST) encoded by pGEX-3X
T10 sequence: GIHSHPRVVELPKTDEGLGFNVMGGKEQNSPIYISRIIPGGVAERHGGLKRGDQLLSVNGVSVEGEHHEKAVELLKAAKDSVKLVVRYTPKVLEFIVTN
As to the kind of experiment: A/G assays.

Test [13] deals with T11, GST-prIL16 PDZ domains 1-2 fusion protein (Homo sapiens (Human), UniProt Q14005 1110-1325).
T11 construct: also called putative interleukin 16 precursor; not shown: glutathione S-transferase (GST) encoded by pGEX-3X
T11 sequence: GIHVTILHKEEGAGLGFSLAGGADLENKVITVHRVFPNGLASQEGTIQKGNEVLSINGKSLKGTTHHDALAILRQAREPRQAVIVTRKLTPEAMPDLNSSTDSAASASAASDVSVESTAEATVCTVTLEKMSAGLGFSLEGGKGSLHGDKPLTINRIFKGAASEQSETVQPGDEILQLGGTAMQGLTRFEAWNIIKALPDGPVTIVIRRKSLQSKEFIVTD
Put plainly: G assay.

In test [14] the target is T12, GST-MPP1 PDZ domain fusion protein (Homo sapiens (Human), UniProt Q00013 67-152).
T12 construct: also called 55 Kd erythrocyte membrane protein; not shown: glutathione S-transferase (GST) encoded by pGEX-3X
T12 sequence: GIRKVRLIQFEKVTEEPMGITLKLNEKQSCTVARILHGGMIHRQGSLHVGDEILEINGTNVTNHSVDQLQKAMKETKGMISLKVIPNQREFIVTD
Put plainly: G assay.

For test [15], the target named is T12, GST-MPP1 PDZ domain fusion protein. As to the kind of experiment: A/G assays.
In test [16] the target is T2, GST-MPP2 PDZ domain fusion protein. Put plainly: A assay.
In test [17] the target is T7, GST-NeDLG PDZ domains 1-2 fusion protein. Put plainly: G assay.
Test [18] has the same target. Put plainly: A and G assays.
The target in test [19] is T6, GST-SYN1a (alpha1-syntrophin) PDZ …. As to the kind of experiment: G assay.
The target of test [20] is T12, GST-MPP1 PDZ domain fusion protein. As to the kind of experiment: A assay.
Test [21] concerns the target T7, GST-NeDLG PDZ domains 1-2 fusion protein. As to the kind of experiment: A assay.
For test [22], the target named is T13, GST-41.8 kD (hypothetical 41.8 kD protein) PDZ domain fusion protein (Mus musculus (Mouse), UniProt Q9EQZ7 682-763).
T13 construct: not shown: glutathione S-transferase (GST) encoded by pGEX-3X
T13 sequence: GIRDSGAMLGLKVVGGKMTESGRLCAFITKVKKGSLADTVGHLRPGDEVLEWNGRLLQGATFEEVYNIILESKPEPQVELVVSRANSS
Put plainly: A assay.

The target of test [23] is T3, GST-DVL1 PDZ domain fusion protein. Put plainly: A assay.

Ends that are not written are not given here. * marks the point of attachment. Biotin = O=C1N[C@H]2[C@H](CS[C@H]2CCCCC(=O)*)N1

T8 sequence (P29475 other isoform, or with tags, fused parts or gaps): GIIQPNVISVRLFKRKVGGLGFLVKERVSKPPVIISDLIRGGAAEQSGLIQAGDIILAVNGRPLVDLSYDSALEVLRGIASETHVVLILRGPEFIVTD
T9 sequence (Q14CM0 other isoform, or with tags, fused parts or gaps): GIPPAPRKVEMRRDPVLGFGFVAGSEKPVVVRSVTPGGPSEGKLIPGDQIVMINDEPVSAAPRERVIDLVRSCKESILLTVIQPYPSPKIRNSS

B1: CD95 (Apo-1/Fas) C-terminal peptide AA13L (peptide)
peptide: Biotin-KDITSDSENSNFRNEIQSLV
Take B1: the binding result in test [1], in [2], in test [3], in test [4], in test [5] and in test [6] was “no binding” each time. Moreover, the Kd in test [7] was 54 µM.

B2: CD98 (2F4) C-terminal peptide AA15L (peptide)
peptide: Biotin-ERLKLEPHEGLLLRFPYAA
For the molecule B2, the binding result in test [8] is recorded as “binds”; in [1], “no binding”; in test [9], “no binding”; in test [10], “no binding”; in test [3] it was “no binding”; in test [4] it was “no binding”. The binding result in test [5], in [11], in test [12] and in test [6] was “no binding” each time.

B3: CD44 (long form) C-terminal peptide AA9L (peptide)
peptide: Biotin-QFMTADETRNLQNVDMKIGV
Take B3: the binding result in test [13] was “binds”; in test [14] it was “binds”; in test [1] it was “no binding”; in test [2] it was “no binding”; in [3] it was “no binding”; in test [4], “no binding”. Moreover, the binding result in test [5], in [11] and in [6] was “no binding” each time.

B4: Glycophorin C C-terminal peptide AA37L (peptide)
peptide: Biotin-QGDPALQDAGDSSRKEYFI
notes: also called GC
As to B4, the binding result in test [15] is “no binding”; in test [16], “binds”; in test [17], “binds”; in [1], “no binding”; in [3], “no binding”; in test [4], “no binding”. Further, the binding result in test [5] and in [6] was “no binding” in each case.

B5: CDW128B (IL8RB) C-terminal peptide AA29.2L (peptide)
peptide: Biotin-KDSRPSFVGSSSGHTSTTL
For B5, the binding result in test [1], in [2], in [3], in [4], in test [5] and in [6] was “no binding” in each case. Moreover, in test [18], the binding result is recorded as “binds”.

B6: DOCK2 C-terminal peptide AA40L (peptide)
peptide: Biotin-LASKSAEEGKQIPDSLSTDL
In the case of B6, the binding result in test [17] is “binds”; in [19] it was “binds”; in test [1] it was “no binding”; in test [2], “no binding”; in [3], “no binding”; in test [4], “no binding”. For the same molecule, in test [5], the binding result is “no binding”.

B7: DNAM-1 C-terminal peptide AA22L (peptide)
peptide: Biotin-TREDIYVNYPTFSRRPKTRV
Turning to B7, the binding result was “binds” in test [20]; “binds” in test [21]; “binds” in test [8]; “no binding” in [1]; “no binding” in test [9]; “no binding” in test [3]. Also, the binding result in test [4], in test [5] and in [6] was “no binding” each time.

B8: CLASP-2 C-terminal peptide AA2L (peptide)
peptide: Biotin-ISGTPTSTMVHGMTSSSSVV
For the molecule B8, the binding result in test [22] is “binds”; in [1], “no binding”; in test [2] it was “no binding”; in test [3], “no binding”; in [4] it was “no binding”; in test [5] it was “no binding”. In [6], the binding result is listed as “no binding”. The Kd in [7] came to 7.5 µM.

B9: KV1.3 C-terminal peptide AA33L (peptide)
peptide: Biotin-TTNNNPNSAVNIKKIFTDV
Take B9: the binding result in test [23] is on record as “binds”; in test [1] it was “no binding”; in test [2] it was “no binding”; in test [4] it was “no binding”; in test [5], “no binding”; in test [6], “no binding”. For the same molecule, in test [18], the binding result is on record as “binds”.

B10: VCAM1 C-terminal peptide AA17L (peptide)
peptide: Biotin-ARKANMKGSYSLVEAQKSKV
B10: the binding result in test [20] is “binds”; in test [21], “binds”; in test [1], “no binding”; in test [2], “no binding”; in [3], “no binding”; in [4], “no binding”. In addition, the binding result in [5] and in test [6] was “no binding” throughout.
